Experimental data: patent US20250177503A1, “COMPOSITIONS AND METHODS FOR TREATING AUTOIMMUNE DISORDERS” (THE REGENTS OF THE UNIVERSITY OF MICHIGAN, priority 2022, published 2025)

Test system: CD4+CD25+Foxp3+T regulatory cells (Tregs)
Experiment: Example III: dosing regimen optimisation, ND-OVA + IL-2/IC vs ND-OVA + wtIL-2, flow cytometry of peripheral blood CD4+ T cells
Assay type: in vivo, C57BL/6 mice
Conditions: summary of findings
Experimental: Animals were cared for following federal, state, and local guidelines. All work performed on animals was in accordance with and approved by Institutional Animal Care & Use Committee (IACUC) at the University of Michigan, Ann Arbor. Seven-week-old female C57BL/6 mice were randomly divided into 6 groups with 5 mice in each group. For Group 1 (ND-OVA_D−3,+7+IL2/IC_D3,4,5): 0.1 mL of ND-OVA (containing 0.1 mg OVA-II peptide) was injected into each mouse subcutaneously at the tail base at Day −3 and Day 7; 0.1 mL IL2/IC (containing 1 μg murine IL-2 and […] IL-2 mAb) was injected into each mouse intraperitoneally (i.p.) at Days 0, 1, 2, and Days 10, 11, 12. For Group 2 (ND-OVA_D−4,+6+IL2/IC_D4,5,6): 0.1 mL of ND-OVA (containing 0.1 mg OVA-II peptide) was injected into each mouse subcutaneously at the tail base at Day −4 and Day 6; 0.1 mL IL2/IC (containing […] murine IL-2 and 5 μg IL-2 mAb) was injected into each mouse intraperitoneally (i.p.) at Days 0, 1, 2, and Days 10, 11, 12. For Group 3 (ND-OVA_D−3,+7+IL2/IC_D3,4,5,6,7): 0.1 mL of ND-OVA (containing 0.1 mg OVA-II peptide) was injected into each mouse subcutaneously at the tail base at Day −3 and Day 7; 0.1 mL IL2 (containing 1 μg murine IL-2) was injected into each mouse intraperitoneally (i.p.) at Days 0, 1, 2, 3, 4 and Days 10, 11, 12, 13, 14. […]

B1: IL-2: recombinant murine IL-2 (wild type IL-2 protein) (protein, UniProt P04351 21-169, looked up)
Interleukin-2: APTSSSTSSSTAEAQQQQQQQQQQQQHLEQLLMDLQELLSRMENYRNLKLPRMLTFKFYLPKQATELKDLQCLEDELGPLRHVLDLTQSKSFQLEDAENFISNIRVTVVKLKGSDNTFECQFDDESATVVDFLRRWIAFCQSIISTSPQ
expansion of total Tregs and antigen-specific Tregs: fails to expand
